Data from patent US6960343B2, “Toll/interleukin-1 receptor adapter protein (TIRAP)” (Yale University School of Medicine, priority 2001, dated 2005).

What was measured:
IL-1R = molecular target: T1, IL-1R (Homo sapiens, UniProt P14778); assay: IL-1R-induced NF-κB activity, luciferase reporter, 293T cells; assay type: cell-based
T1 construct: expressed in transfected cells; host or cells: 293T cells
T1 sequence (P14778 18-569): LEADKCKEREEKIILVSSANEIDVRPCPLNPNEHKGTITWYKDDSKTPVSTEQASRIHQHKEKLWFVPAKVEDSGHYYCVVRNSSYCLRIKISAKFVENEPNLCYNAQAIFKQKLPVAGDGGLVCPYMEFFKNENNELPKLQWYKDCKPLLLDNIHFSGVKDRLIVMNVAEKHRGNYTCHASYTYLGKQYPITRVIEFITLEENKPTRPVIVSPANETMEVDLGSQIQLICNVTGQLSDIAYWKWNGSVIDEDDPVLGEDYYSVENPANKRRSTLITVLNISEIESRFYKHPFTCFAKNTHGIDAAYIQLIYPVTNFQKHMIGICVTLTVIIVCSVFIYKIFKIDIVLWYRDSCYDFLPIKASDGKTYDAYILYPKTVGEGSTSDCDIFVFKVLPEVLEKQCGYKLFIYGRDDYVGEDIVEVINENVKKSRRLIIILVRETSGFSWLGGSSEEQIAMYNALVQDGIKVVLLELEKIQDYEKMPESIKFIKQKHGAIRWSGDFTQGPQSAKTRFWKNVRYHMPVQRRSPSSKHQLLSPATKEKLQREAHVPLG
T1 sequence (Q9NPH3 21-570 partner): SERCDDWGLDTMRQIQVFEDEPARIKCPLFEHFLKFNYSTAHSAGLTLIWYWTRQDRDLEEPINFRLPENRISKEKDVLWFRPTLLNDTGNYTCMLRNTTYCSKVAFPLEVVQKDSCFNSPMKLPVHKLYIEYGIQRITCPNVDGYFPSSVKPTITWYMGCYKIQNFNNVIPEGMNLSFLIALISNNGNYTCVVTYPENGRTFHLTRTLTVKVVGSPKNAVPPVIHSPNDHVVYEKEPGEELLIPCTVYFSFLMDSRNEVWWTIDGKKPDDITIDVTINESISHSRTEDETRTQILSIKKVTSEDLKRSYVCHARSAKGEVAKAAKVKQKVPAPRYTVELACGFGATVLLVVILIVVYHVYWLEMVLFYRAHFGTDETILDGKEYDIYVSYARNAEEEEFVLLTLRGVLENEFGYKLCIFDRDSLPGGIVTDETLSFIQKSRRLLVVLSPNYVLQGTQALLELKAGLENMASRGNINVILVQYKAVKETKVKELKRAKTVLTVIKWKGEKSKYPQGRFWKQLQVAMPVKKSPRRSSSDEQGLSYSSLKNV
Protocol: Unlike TLR4, neither IL-1R nor TLR9 can induce NF-κB in the absence of MyD88 (Kawai 1999; Schnare 2000; Adache 1998). To assess the possibility that TIRAP is the putative adapter in the MyD88-independent signaling pathway, we tested TIRAP P125H for its ability to inhibit NF-κB activity induced y IL-1R and TLR9. 293T cells were co-transfected with either vector alone (pcDNA3), IL-1R (0.1 μg), and IL-1R AcP (0.1 μg) [Dr. Medzhitov: Please indicate what the IL-1R AcP construct encodes] plasmid cDNAs, with or without increasing concentrations (10 ng, 50 ng, 200 ng) of TIRAP P125H plasmid and the NF-κB-dependent luciferase reporter gene.

[1] = molecular target: T2, CD4/TLR4 (constitutively active form of TLR4) (UniProt O00206+P06332); assay: CD4/TLR4-mediated NF-κB activation, luciferase reporter, 293T cells; assay type: cell-based; conditions: 50 ng, 250 ng, 1.0 μg construct
T2 construct: CD4 (fusion partner of the chimera); expressed in transfected cells; host or cells: 293T cells
T2 sequence (P06332+O00206 with tags, fused parts or gaps): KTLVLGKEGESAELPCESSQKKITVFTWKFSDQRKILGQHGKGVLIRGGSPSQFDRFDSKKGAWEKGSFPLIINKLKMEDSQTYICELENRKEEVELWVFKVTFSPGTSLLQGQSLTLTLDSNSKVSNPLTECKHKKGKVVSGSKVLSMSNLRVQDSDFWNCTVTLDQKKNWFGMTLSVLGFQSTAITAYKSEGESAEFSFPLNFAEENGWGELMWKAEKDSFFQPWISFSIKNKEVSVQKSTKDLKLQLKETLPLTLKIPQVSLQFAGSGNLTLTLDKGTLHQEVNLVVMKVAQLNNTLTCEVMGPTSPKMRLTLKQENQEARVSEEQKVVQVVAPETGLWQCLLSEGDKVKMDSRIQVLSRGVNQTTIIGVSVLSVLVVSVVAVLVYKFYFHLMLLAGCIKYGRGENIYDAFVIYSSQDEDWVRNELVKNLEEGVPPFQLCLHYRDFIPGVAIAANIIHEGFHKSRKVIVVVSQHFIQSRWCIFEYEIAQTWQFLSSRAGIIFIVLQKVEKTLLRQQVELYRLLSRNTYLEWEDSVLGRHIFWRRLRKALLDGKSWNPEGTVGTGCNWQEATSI
Protocol: To determine whether TIRAP P125H functions as a dominant negative, 293T cells were transfected with 0.25 μg of vector alone (pcDNA3) or CD4/TLR4 (a vector expressing a constitutively active form of TLR4) with or without increasing concentrations (50 ng, 250 ng, 1.0 μg) of either TIRAP P125H or MyD88 DN (a vector expressing MyD88 containing a proline to histidine mutation at the same position as TIRAP P125H) and the NF-κB-dependent luciferase reporter gene.

## TIRAP P125H: vector encoding a mutant form of TIRAP containing a proline to histidine mutation at amino acid position 125
IL-1R
  inhibition of NF-κB activity induced by IL-1B cytokine: did not inhibit
IL-1R; 293T cells, 10 ng, 50 ng, 200 ng plasmid
  inhibition of NF-κB activity induced by co-transfected IL-1R and IL-1R AcP: did not inhibit
[1]
  inhibition of NF-κB activation mediated by CD4/TLR4: strongly inhibited
